Results as given in patent US20180155451A1 (published 2018).

Assays:
[1] = molecular target: T1, FcγRIIb extracellular domain with C-terminal His tag (human, UniProt P31994 43-217); assay: SPR (Biacore), captured antibody, FcγR as analyte; relative to GpH7-A5/GpH7-B3/GpL16-k0 = 100
T1 construct: extracellular domain; also called FcgRIIb; 2b; not shown: His tag at the C terminus
T1 sequence (looked up): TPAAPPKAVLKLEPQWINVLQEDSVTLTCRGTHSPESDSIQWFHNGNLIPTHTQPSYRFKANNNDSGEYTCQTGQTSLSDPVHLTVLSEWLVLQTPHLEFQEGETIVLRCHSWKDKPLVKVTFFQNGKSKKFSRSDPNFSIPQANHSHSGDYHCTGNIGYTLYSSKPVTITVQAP
Experimental: (§1) Analysis of interaction between objective antibody and the FcγR was carried out using Biacore T100 (GE Healthcare). HBS-EP+ (GE Healthcare) was used as the running buffer, and the measurement temperature was set to 25° C. Chips produced by immobilizing the antigen peptide by the amine coupling method to a Series S Sencor Chip CM5 (GE Healthcare), or alternatively, chips produced by allowing preliminarily biotinylated antigen peptides to interact with and immobilize onto a Series S Sensor Chip SA (certified) (GE Healthcare) were used. Antibodies of interest were captured onto an antigen peptide-immobilized chip, and allowed to interact to each FcγR diluted with running buffer. To regenerate and repeatedly use the chip, the antibodies captured on the chip were washed off by reacting 10 mM glycine-HCl, pH 1.5.
(§2) The FcγR-binding activity of each antibody was assessed primarily using as an indicator the FcγR-binding activity and dissociation constant for FcγR.

[2] = molecular target: T2, FcγRIIIa extracellular domain with C-terminal His tag (human, UniProt P08637 17-208); assay: as above
T2 construct: extracellular domain; also called FcgRIIIa; 3a; not shown: His tag at the C terminus
T2 sequence (P08637 17-208): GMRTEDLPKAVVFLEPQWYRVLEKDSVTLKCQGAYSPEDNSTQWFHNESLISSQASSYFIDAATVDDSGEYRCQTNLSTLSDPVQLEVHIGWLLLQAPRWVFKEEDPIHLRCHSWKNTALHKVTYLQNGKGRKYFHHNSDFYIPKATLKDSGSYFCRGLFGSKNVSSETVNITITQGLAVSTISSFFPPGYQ
Experimental: as §1, §2

[3] = molecular target: T3, FcγRIIa R (human, UniProt P12318 34-217); assay: SPR; He/Con_2aR divided by He/Con_2b (FcγRIIb as reference)
T3 construct: extracellular domain; also called FcgRIIa R type; 2aR
T3 sequence (looked up): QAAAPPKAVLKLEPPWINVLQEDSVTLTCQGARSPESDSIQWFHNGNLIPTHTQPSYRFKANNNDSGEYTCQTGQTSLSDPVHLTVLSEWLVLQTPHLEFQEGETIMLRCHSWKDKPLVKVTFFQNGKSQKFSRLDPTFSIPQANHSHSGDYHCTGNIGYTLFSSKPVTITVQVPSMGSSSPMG

[4] = molecular target: T4, FcγRIIb (human, UniProt P31994 43-217); assay: SPR (Biacore), antibody captured, FcγR as analyte; relative binding
T4 construct: extracellular domain; also called FcgRIIb; 2b
T4 sequence (looked up): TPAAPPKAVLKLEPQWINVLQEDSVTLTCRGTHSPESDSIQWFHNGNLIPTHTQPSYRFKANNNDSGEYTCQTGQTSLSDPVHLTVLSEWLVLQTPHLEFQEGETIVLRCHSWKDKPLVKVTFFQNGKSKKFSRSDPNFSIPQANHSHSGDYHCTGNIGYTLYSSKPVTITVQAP

[5] = molecular target: T3, FcγRIIa R; assay: as above

B1: GpH7-A5/GpH7-B3 variant G236_11K/GpL16-k0 (heterodimerized antibody, He Ab) (antibody, human IgG1, kappa)
heavy 1: not shown
heavy 2: not shown
light: DIVMTQSPLSLPVTPGEPASISCQASESLVHSNRNTYLHWYLQKPGQSPQLLIYKVSNRFSGVPDRFSGSGSGTDFTLKISRVEAEDVGVYYCSQNTHVPPTFGQGTKVEIERTVAAPSVFIFPPSDEQLKSGTASVVCLLNNFYPREAKVQWKVDNALQSGNSQESVTEQDSKDSTYSLSSTLTLSKADYEKHKVYACEVTHQGLSSPVTKSFNRGEC
notes: Anti-glypican-3 IgG1; the alteration is in the GpH7-B3 chain only; also called G236K
[1]
  He/Con_2b (IIb binding): 49.8 % of HeCon Ab
[2]
  He/Con_3a (IIIa binding): 18.6 % of HeCon Ab

B2: GpH7-A5/GpH7-B3 variant V266_16H/GpL16-k0 (antibody, human IgG1, kappa)
heavy 1: not shown
heavy 2: not shown
light: DIVMTQSPLSLPVTPGEPASISCQASESLVHSNRNTYLHWYLQKPGQSPQLLIYKVSNRFSGVPDRFSGSGSGTDFTLKISRVEAEDVGVYYCSQNTHVPPTFGQGTKVEIERTVAAPSVFIFPPSDEQLKSGTASVVCLLNNFYPREAKVQWKVDNALQSGNSQESVTEQDSKDSTYSLSSTLTLSKADYEKHKVYACEVTHQGLSSPVTKSFNRGEC
notes: heterodimerized antibody, mutation in the GpH7-B3 chain only; also called He Ab
[3]
  IIaR/IIb (He_2aR/2b): 1.34 ratio
[4]
  He/Con_2b (IIb binding): 57.2 % of GpH7-A5/GpH7-B3/GpL16-k0 (=100)
[5]
  He/Con_2aR (IIaR binding): 76.5 % of GpH7-A5/GpH7-B3/GpL16-k0 (=100)

B3: GpH7-A5/GpH7-B3 variant G236_18N/GpL16-k0 (heterodimerized antibody, He Ab) (antibody, human IgG1, kappa)
heavy 1: not shown
heavy 2: not shown
light: DIVMTQSPLSLPVTPGEPASISCQASESLVHSNRNTYLHWYLQKPGQSPQLLIYKVSNRFSGVPDRFSGSGSGTDFTLKISRVEAEDVGVYYCSQNTHVPPTFGQGTKVEIERTVAAPSVFIFPPSDEQLKSGTASVVCLLNNFYPREAKVQWKVDNALQSGNSQESVTEQDSKDSTYSLSSTLTLSKADYEKHKVYACEVTHQGLSSPVTKSFNRGEC
notes: Anti-glypican-3 IgG1; the alteration is in the GpH7-B3 chain only; also called G236N
[1]
  He/Con_2b (IIb binding): 96.4 % of HeCon Ab
[2]
  He/Con_3a (IIIa binding): 37.8 % of HeCon Ab

B4: GpH7-A5/GpH7-B3 variant G236_09D/GpL16-k0 (heterodimerized antibody, He Ab) (antibody, human IgG1, kappa)
heavy 1: not shown
heavy 2: not shown
light: DIVMTQSPLSLPVTPGEPASISCQASESLVHSNRNTYLHWYLQKPGQSPQLLIYKVSNRFSGVPDRFSGSGSGTDFTLKISRVEAEDVGVYYCSQNTHVPPTFGQGTKVEIERTVAAPSVFIFPPSDEQLKSGTASVVCLLNNFYPREAKVQWKVDNALQSGNSQESVTEQDSKDSTYSLSSTLTLSKADYEKHKVYACEVTHQGLSSPVTKSFNRGEC
notes: Anti-glypican-3 IgG1; the alteration is in the GpH7-B3 chain only; also called G236D
[1]
  He/Con_2b (IIb binding): 167 % of HeCon Ab
[2]
  He/Con_3a (IIIa binding): 71.2 % of HeCon Ab

B5: GpH7-A5/GpH7-B3 variant G237_02A/GpL16-k0 (heterodimerized antibody, He Ab) (antibody, human IgG1, kappa)
heavy 1: not shown
heavy 2: not shown
light: DIVMTQSPLSLPVTPGEPASISCQASESLVHSNRNTYLHWYLQKPGQSPQLLIYKVSNRFSGVPDRFSGSGSGTDFTLKISRVEAEDVGVYYCSQNTHVPPTFGQGTKVEIERTVAAPSVFIFPPSDEQLKSGTASVVCLLNNFYPREAKVQWKVDNALQSGNSQESVTEQDSKDSTYSLSSTLTLSKADYEKHKVYACEVTHQGLSSPVTKSFNRGEC
notes: Anti-glypican-3 IgG1; the alteration is in the GpH7-B3 chain only; also called G237A
[1]
  He/Con_2b (IIb binding): 124 % of HeCon Ab
[2]
  He/Con_3a (IIIa binding): 48.8 % of HeCon Ab

B6: GpH7-A5/GpH7-B3 variant G237_04F/GpL16-k0 (heterodimerized antibody, He Ab) (antibody, human IgG1, kappa)
heavy 1: not shown
heavy 2: not shown
light: DIVMTQSPLSLPVTPGEPASISCQASESLVHSNRNTYLHWYLQKPGQSPQLLIYKVSNRFSGVPDRFSGSGSGTDFTLKISRVEAEDVGVYYCSQNTHVPPTFGQGTKVEIERTVAAPSVFIFPPSDEQLKSGTASVVCLLNNFYPREAKVQWKVDNALQSGNSQESVTEQDSKDSTYSLSSTLTLSKADYEKHKVYACEVTHQGLSSPVTKSFNRGEC
notes: Anti-glypican-3 IgG1; the alteration is in the GpH7-B3 chain only; also called G237F
[1]
  He/Con_2b (IIb binding): 149 % of HeCon Ab
[2]
  He/Con_3a (IIIa binding): 25.3 % of HeCon Ab

B7: GpH7-A5/GpH7-B3 variant G236_13S/GpL16-k0 (heterodimerized antibody, He Ab) (antibody, human IgG1, kappa)
heavy 1: not shown
heavy 2: not shown
light: DIVMTQSPLSLPVTPGEPASISCQASESLVHSNRNTYLHWYLQKPGQSPQLLIYKVSNRFSGVPDRFSGSGSGTDFTLKISRVEAEDVGVYYCSQNTHVPPTFGQGTKVEIERTVAAPSVFIFPPSDEQLKSGTASVVCLLNNFYPREAKVQWKVDNALQSGNSQESVTEQDSKDSTYSLSSTLTLSKADYEKHKVYACEVTHQGLSSPVTKSFNRGEC
notes: Anti-glypican-3 IgG1; the alteration is in the GpH7-B3 chain only; also called G236S
[1]
  He/Con_2b (IIb binding): 96.7 % of HeCon Ab
[2]
  He/Con_3a (IIIa binding): 64.8 % of HeCon Ab

B8: GpH7-A5/GpH7-B3 variant Y296_11K/GpL16-k0 (antibody, human IgG1, kappa)
heavy 1: not shown
heavy 2: not shown
light: DIVMTQSPLSLPVTPGEPASISCQASESLVHSNRNTYLHWYLQKPGQSPQLLIYKVSNRFSGVPDRFSGSGSGTDFTLKISRVEAEDVGVYYCSQNTHVPPTFGQGTKVEIERTVAAPSVFIFPPSDEQLKSGTASVVCLLNNFYPREAKVQWKVDNALQSGNSQESVTEQDSKDSTYSLSSTLTLSKADYEKHKVYACEVTHQGLSSPVTKSFNRGEC
notes: as for B2
[3]
  IIaR/IIb (He_2aR/2b): 1.3 ratio
[4]
  He/Con_2b (IIb binding): 72.8 % of GpH7-A5/GpH7-B3/GpL16-k0 (=100)
[5]
  He/Con_2aR (IIaR binding): 94.3 % of GpH7-A5/GpH7-B3/GpL16-k0 (=100)
